# Assay results published in the supplement of paper PMC10724198.
# ± gives the standard deviation of the averaged measurements.
# Tested on: Saccharomyces cerevisiae
# Assay: protein stability index of tFT-peptide fusion (C-terminal peptide) (PSI (0-1 scale)); higher = more stable (slower turnover)
# Conditions: genetic background: wild type; temperature: 30 C
# Procedure: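 MPS profiling in S. cerevisiae of the yeast C-terminome library: the last 12 aa of each annotated ORF are fused to the C-terminus of a sfGFP-mCherry timer, after a GGGS linker. Cells are FACS-sorted into 8 mCherry/sfGFP bins and deep-sequenced. PSI runs from 0 (unstable) to 1 (stable); wild type and das1Δ backgrounds, two technical replicates each.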
row,Sequence,protein stability index
1,SLDGDTYFIIRS [YDL158C C-terminal 12 aa],0.688 ± 0.033
2,SLRIEAIKKGFV [SPS1 C-terminal 12 aa],0.675 ± 0.029
3,SMDEEFKNMDCI [SIR3 C-terminal 12 aa],0.701 ± 0.05
4,SNKKLKSQWLIK [EMC1 C-terminal 12 aa],0.665 ± 0.0081
5,SNNPKLHHAKEA [MEP3 C-terminal 12 aa],0.375 ± 0.013
6,SQAGLMSNEEVL [CCC2 C-terminal 12 aa],0.699 ± 0.022
7,SQRPAKGVPEGF [VPS72 C-terminal 12 aa],0.733 ± 0.051
8,SRFDYLTRKNAL [CBK1 C-terminal 12 aa],0.71 ± 0.051
9,SRFEVACEQKAA [BSC2 C-terminal 12 aa],0.592 ± 0.019
10,SRFRTNRLKGDQ [YNL042W-B C-terminal 12 aa],0.689 ± 0.026
11,SRLKKEFEAAAL [IDP2 C-terminal 12 aa],0.678 ± 0.085
12,SSGADNSASSNQ [PAM16 C-terminal 12 aa],0.667 ± 0.029
13,SSSLSPSLSSWP [YJL020W-A C-terminal 12 aa],0.778 ± 0.17
14,SSTGTPEHDQDT [EUC1 C-terminal 12 aa],0.682 ± 0.025
15,STATGKLKKRKM [RAD2 C-terminal 12 aa],0.649 ± 0.021
16,STFSIVSSISLW [YPL044C C-terminal 12 aa],0.665 ± 0.057
17,STPIAIGIMNIL [YDR271C C-terminal 12 aa],0.697 ± 0.0089
18,STSSLKRQRTDF [REX2 C-terminal 12 aa],0.712 ± 0.017
19,STTADSTTNSAN [YLR146W-A C-terminal 12 aa],0.664 ± 0.011
20,SVFLLNITYLLD [YOR314W C-terminal 12 aa],0.268 ± 0.018
21,SVTFFIQDILCL [YPL073C C-terminal 12 aa],0.407 ± 0.015

row,Sequence,protein stability index
1,SWINLDFNDGDE [MDM12 C-terminal 12 aa],0.67488 ± 0.00028
2,SYRVMQPNEFES [YGL214W C-terminal 12 aa],0.711 ± 0.11
3,TAAQILKKQNRL [YDR541C C-terminal 12 aa],0.704 ± 0.063
4,TALLENDANLIS [ERV15 C-terminal 12 aa],0.703 ± 0.021
5,TALNSGRSRDVK [YJL027C C-terminal 12 aa],0.678 ± 0.019
6,TCLTGEVIFPPR [NPC2 C-terminal 12 aa],0.72 ± 0.017
7,TDGLNVWKTISV [RRB1 C-terminal 12 aa],0.6468 ± 0.0058
8,TEDKNKALESAQ [VPS60 C-terminal 12 aa],0.6706 ± 0.0056
9,TEDQFKENGVKK [ICL1 C-terminal 12 aa],0.716 ± 0.065
10,TEEMKDAEEMKQ [RIX7 C-terminal 12 aa],0.661 ± 0.017
11,TEFMNFWINVLP [RSC4 C-terminal 12 aa],0.715 ± 0.02
12,TFEELWNGVEGI [ARH1 C-terminal 12 aa],0.682 ± 0.038
13,TFGKCILDGFKA [SCM4 C-terminal 12 aa],0.687 ± 0.05
14,TGQVGVPTISQV [NCE102 C-terminal 12 aa],0.6819 ± 0.0068
15,THENIHQKFVQF [SFB3 C-terminal 12 aa],0.6358 ± 0.0022
16,THTHHNPNPTLF [YNL338W C-terminal 12 aa],0.716 ± 0.075
17,TILFMLVLYTIV [YDL241W C-terminal 12 aa],0.222 ± 0.023
18,TKVIQVQKKCIQ [IRC14 C-terminal 12 aa],0.672 ± 0.032
19,TKVYFLGRDSSV [NDE2 C-terminal 12 aa],0.6764 ± 0.0011
20,TLIDYFIENDGL [LYS5 C-terminal 12 aa],0.761 ± 0.092
21,TLRGLSNAFPTD [MME1 C-terminal 12 aa],0.703 ± 0.013

row,Sequence,protein stability index
1,TPKYVESDEDDQ [TOF2 C-terminal 12 aa],0.7196 ± 0.0037
2,TQSPADFSSQNH [NHX1 C-terminal 12 aa],0.701 ± 0.021
3,TRGEATLRANYQ [YOR008W-B C-terminal 12 aa],0.73 ± 0.055
4,TRGPRRKLPTRV [BSP1 C-terminal 12 aa],0.672 ± 0.06
5,TSIEEDLASKSE [RTA1 C-terminal 12 aa],0.676 ± 0.008
6,TSSQYEGVALGM [EAF3 C-terminal 12 aa],0.669 ± 0.0083
7,TTHGLKQKLQHA [RTN2 C-terminal 12 aa],0.698 ± 0.024
8,TTRYAKEMNIIS [HIR2 C-terminal 12 aa],0.705 ± 0.054
9,TVSSVESVLAHL [AHP1 C-terminal 12 aa],0.7489 ± 0.0029
10,VACDSDSSSTIE [YEN1 C-terminal 12 aa],0.699 ± 0.014
11,VATYLREHEYDQ [AAP1 C-terminal 12 aa],0.7314 ± 0.0051
12,VDFIKEFAEKNA [SER1 C-terminal 12 aa],0.706 ± 0.014
13,VDIRSFRQDMDL [YJR056C C-terminal 12 aa],0.664 ± 0.017
14,VDNFISVLKQGQ [LOS1 C-terminal 12 aa],0.668 ± 0.0073
15,VDVLKLNDPTRH [BCY1 C-terminal 12 aa],0.706 ± 0.042
16,VEAVKRVLTKKF [IMG2 C-terminal 12 aa],0.694 ± 0.012
17,VFDENMYSKYSS [BRO1 C-terminal 12 aa],0.712 ± 0.032
18,VFLVISQHSLHS [YDR545C-A C-terminal 12 aa],0.652 ± 0.011
19,VGADSYAEEEEF [TUB1 C-terminal 12 aa],0.676 ± 0.032
20,VGDIVWKIRNIN [TTI1 C-terminal 12 aa],0.1985 ± 0.0019
21,VGDLEAGLRRKK [IMG1 C-terminal 12 aa],0.6655 ± 0.0024

row,Sequence,protein stability index
1,VHCGCRGCASTD [BUD31 C-terminal 12 aa],0.673 ± 0.017
2,VIDLDNSVAREV [MDL1 C-terminal 12 aa],0.64 ± 0.007
3,VILMVDFTLVGP [YDR262W C-terminal 12 aa],0.426 ± 0.0078
4,VKKLLEIRSKSS [GTT2 C-terminal 12 aa],0.369 ± 0.0065
5,VKKLVTDMLAKI [CFT2 C-terminal 12 aa],0.669 ± 0.029
6,VLSFNPKVWLLV [YAR068W C-terminal 12 aa],0.0978 ± 0.0096
7,VNGELKYVKPED [AFT1 C-terminal 12 aa],0.6909 ± 0.0017
8,VPGNPGVVFQNI [CDC60 C-terminal 12 aa],0.75 ± 0.082
9,VQSTDIAAMQKL [EFB1 C-terminal 12 aa],0.683 ± 0.035
10,VRKLSFHVYEDE [ACM1 C-terminal 12 aa],0.658 ± 0.0079
11,VSKMDCDPLTVA [NIF3 C-terminal 12 aa],0.676 ± 0.025
12,VTFLVFANLRLW [YBR223W-A C-terminal 12 aa],0.575 ± 0.027
13,VVCFVSYQKLSS [OPI9 C-terminal 12 aa],0.168 ± 0.026
14,VVEALRDAVGDV [NBP35 C-terminal 12 aa],0.696 ± 0.02
15,VVVVPSVVETRK [SSO2 C-terminal 12 aa],0.668 ± 0.026
16,VWADILNKLGKD [ADK1 C-terminal 12 aa],0.719 ± 0.025
17,VYALSIKRSKLT [EPT1 C-terminal 12 aa],0.208 ± 0.0051
18,VYELVDAEALFS [YDR131C C-terminal 12 aa],0.682 ± 0.012
19,WAVGGVELTTDI [GCN1 C-terminal 12 aa],0.705 ± 0.026
